PMC11245307, “Evolutionary adaptation of an HP1-protein chromodomain integrates chromatin and DNA sequence signals” (eLife, 2024)
Changes are numbered by the printed parent chain. Ends that are not written are not given here. Me3 = trimethyl (on lysine, trimethyl-lysine)

Legend:
Assay in all cases: ITC; chromodomain at 100 µM, H3K9me3 peptide at approximately 1 mM; 20 mM Tris, pH 8.0, 25 mM NaCl, 2 mM β-mercaptoethanol; 20°C; MicroCal iTC200, sixteen 2.5 µl injections
Details in all cases: both partners purified
[1] = target: T1, Rhino chromodomain G31A (Rhino residues 20-90) (D. melanogaster, UniProt Q7JXA8 20-90, G31A)
T1 construct: Rhino (HP1d), D. melanogaster, chromodomain construct spanning residues 20-90, with G31A; also called G31A mutant; source: E. coli BL21-CodonPlus (DE3)-RIPL, purified (Ni-NTA, Ulp1 cleavage, ion exchange, Superdex75); not shown: His6, N-terminal, cleaved; SUMO, N-terminal, cleaved
T1 sequence (looked up): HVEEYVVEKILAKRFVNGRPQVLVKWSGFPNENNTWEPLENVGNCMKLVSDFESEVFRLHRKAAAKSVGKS

[2] = target: T2, Rhino chromodomain G31D (Rhino residues 20-90) (D. melanogaster, UniProt Q7JXA8 20-90, G31D)
T2 construct: Rhino (HP1d), D. melanogaster, chromodomain construct spanning residues 20-90, with G31D; also called Rhino^G31D chromodomain; source: E. coli BL21-CodonPlus (DE3)-RIPL, purified (Ni-NTA, Ulp1 cleavage, ion exchange, Superdex75); not shown: His6, N-terminal, cleaved; SUMO, N-terminal, cleaved
T2 sequence (looked up): T1 sequence (looked up) with A12D

[3] = target: T3, Rhino chromodomain, wildtype construct (Rhino residues 20-90) (D. melanogaster, UniProt Q7JXA8 20-90)
T3 construct: Rhino (HP1d), D. melanogaster, chromodomain construct spanning residues 20-90; Expressed as His6-SUMO-RhinoCD in pET-28; the tag was removed with Ulp1 protease; also called RhinoCD; wildtype domain; source: E. coli BL21-CodonPlus (DE3)-RIPL, purified (Ni-NTA, Ulp1 cleavage, ion exchange, Superdex75); not shown: His6, N-terminal, cleaved; SUMO, N-terminal, cleaved
T3 sequence (looked up): T1 sequence (looked up) with A12G

B1: H3K9me3 peptide (KQTAR-K[me3]-STGGK) (peptide)
peptide: KQTARK(Me3)STGGK
notes: histone H3 N-terminal tail, K4 to K14 with K9 trimethylated; also called H3K9me3-modified histone tail peptide; synthetic H3K9me3 peptides; source: synthetic peptide; bought: AnaSpec, Inc
Kd [1]: 43.5 ± 8.6 µM | Kd [2]: 31.1 ± 3.2 µM | Kd [3]: 30.9 ± 3 µM
